Source: patent US20190031713A1

Biological target: Protein A (on chromatography support) (UniProt P38507)
Assay: Protein A column, linear pH gradient

elution pH from Protein A column | Substance
3.9 pH | IgG1 heterodimer with two IgG1 heavy chains identical but for an H435R/Y436F dipeptide modification in one CH3 domain (from UniProt P01857 1-330) (antibody)
3.7 pH | IgG1 homodimer (unmodified CH3) (antibody)
